According to patent US20230226096A1 (Orna Therapeutics, Inc., priority 2020, published 2023):

B1: Aichivirus DVI2321 (nucleic acid, listed as Aichivirus sp.)
DNA: GCTTCTTCGGAACCTGTTCGGAGGAATTAAACGGGCACCCATACACCCCCACCCCCTTTTCTGCAACTTAAGTATGTGTGCTCGTAATCTTGACTCCCACGGAATGGATCGATCCGCTGGAGAACAAACTGCTAGATCCACATCCTCCCTTCCCCTGGGAGGACCCCGGTCCTCCCACATCCTCCCCCCAGCCTGACGTATCACAGGCTGTGTGAAGTCCCCGCGAAAGCTGCTCACGTGGCAATTGTGGGTCCCCCCTTCATCAAGACACCAGGTCTTTCCTCCTTAAGGCTAGCCCCGATGTGTGAATTCACATTGGGCAACTAGTGGTGTCACTGTGCGCTCCCAATCTCGGCCGCGGAGTGCTGTTCCCCAAGCCAAACCCCTGGCCCTTCACTATGTGCCTGGCAAGCATATCTGAGAAGGTGTTCCGCTGTGGCTGCCAGCCTGGTAACAGGTGCCCCAGTGTGCGTAACCTTCTTCCGTCTCCGGACGGTAGTGATTGGTTAAGATTTGGTGTAAGGTTCATGTGCCAACGCCCTGTGCGGGATGAAACCTCTACTGCCCTAGGAATGCCAGGCAGGTACCCCACCTTCGGGTGGGATCTGAGCCTGGGCTAATTGTCTACGGGTAGTTTCATTTCCAATTCTTTTATGTCGGAGTC
B2: Symapivirus A (nucleic acid)
DNA: TTGGGAAATCCCCAATGCTTCTTTCAACACCGCCTGACTATGCGGTGGCGCTTCGGCTCAAACAACTAGTCACTTCCCCCTCTTAACTACTACCCAAGACTTCTAACTACCCTTACCTACTTATTTGTCTAAATTTCAAACTTTTATTCTCACGCGTCTTATAAACATCTTTTCTATTTGTTATGGTATGTTTTGTGATTTGTGTGGTGTATTTCATTTAATGGGATCTAGTGGACCGTGCCCCGGTTGGGTATCCGCTCCCTTTAAATGTTTGCAAGCACTCTTGACATTATAACCTATCATTTAGTTTACTTGTTTGTATGATCGTATTTCTGAATCGTAACATTTATGCAATTCTTTCTCGCCGAGACTTGTCTAGGAGATAAAGTTCCTGCATATTTAGTGTTACGGTTGTATAATGGAGACTTAGATAGCTTCACACTGAGGACGCTTTTTCGCTATCCTTTTGACCTGATTCAGGCCAGTGTGGAGTTAATGATTGTATGGATGGGCCCTACAATTTGTCTAAGACTTGGTGATAGCCTCGCGGCCGCTCGCCATTTATACAACTGAATAGCGGTTGAAACTCTCT
modifications: Symapivirus A
B3: Aichivirus rat08 (nucleic acid, listed as Aichivirus sp.)
DNA: TACTCCATTCAGCTTCTTCGGAACCTGTTCGGAGGAATTAAACGGGCACCCACTTTCCTGTCCTCTCCCCTTTTCTGTAACTCCAAGTGTGTGCTCGTAATCTTGACTCCCGCGGATTGACCGCTCCGCTGGTGAACAAACTGCTAGGTCATCTCCTCCCCACCCTTGGGCGTCCTTCCGGGCGTCCACACCCTCCCCCCAGCCTGACGTGTCACAGGCTGTACAAAGACCCCGCGAAAGCTGCTAACGTGGCAATTGTGGGTCCCCCCTTTGTAAAGGAACCGAGTCTTTCTCCCTTAAGGCTAGACCCCTGTGTGAATTCACAGGTGGCAACTAGTGGTTCCACTGCATGCTCCCGACCTCGGCCGCGGAGTGCTGTTCCCCAAGTCGTAACACTGACCTTCACTTATGTGCCTGGCAAGCATATCTGAGAAGATGTTCCGCTGTGGCTGCCAAACCTGGTAACAGGTGCCCCAGTGTGCGTAGTCTTCTTCCGTCTTCGGACGGTAGGTGTTAGGTAAAGATGCGGCGTAAGGTTCAAGTGCCAACGCCCTGGAAGGGATGACCCTTCTACTGCCCTAGGAATGCCGCGCAGGTACCCCAGGTTCGCCTGGGATCTGAGCGCGGGCTAATTGTCTACGGGTAGTTTCATTTCCCTCTTCTTCCACTGGCATC
B4: Porcine Kobuvirus GS2 (nucleic acid, listed as Kobuvirus sp.)
DNA: TTTGAAAAGGGGGTGGGGGGGCCTCGGCCCCCTCACCCTCTTTTCCGGTGGCCATTCGCCCGGGCCACCGTTACTCCACTCCACTCCTTCGGGACTGGTTTGGAGGAACACAACAGGGCTTCCCATCCCTGTTTACCCTTTATTCCATCATCCTTTCCCCAAGTTTACCCTATCCACACCCCACTGACTGACTCCTTTGGATTTTGACCTCAGAATGCCTATTTGACCTCCCACTCGCCTCTCCCTTTTCGGATTGCCGGTGGTGCCTGGCGGAAAAAGCACAAGTGTGTTGCAGGCTACCAAACTCCTACCCGACAAAGGTGCGTGTCCGCGTGCTGAGTAATGGGATAGGAGATGCCTACAACAGGCTCGCCCATGAGTAGAGCATGGACTGCGGTGCATGTGACTTCGGTCACCACGGGCATAGCATTGCTCACCCGTGAATCAAGTCATCGAGATTTCTCTGACCTCTGAAGTGCACTGTGGTTGCGTGGCTGGGAATCCACGCTTGACCATGTACTGCTTGATAGAGTCGCGGCTGGCCGACTCATGGGTTAAAGTCAGTTGACAAGACAC
B5: Aichivirus Rt386 (nucleic acid, listed as Aichivirus sp.)
DNA: ACTCCATTCAGCTTCTTCGGAACCTGTTCGGAGGAATTAAACGGGCACCCACTTTCCTGTCCTCTCCCCCTTTCTGCAACTCAAGTGTGTGCTCGTAATCCTGACTCCCACGGGTTGACCGCCCCGTTGGTGAACAAACAGCTAGGTCATTCCCTCCCTACCCCTGGGCGCCATTTCAGTGGCGTTCATATCCTCCCCCCAGCCTGACGTGTCACAGGCTGTGCAAAGTCCCCGCGAAAGCTGCTCACGTGGCAATTGTGGGTCCCCCCTTTGTGAAGGAACCGAGTCTTTCTCCCTTAAGGCTAGACCCCTGTGTGAACTCACAGGTGGCAACTAGTGGTTCCACTGCATGCTCCCGACCTCGGCCGCGGAGTGCTGTTCCCCAAGTCGTGACACTGACCTCCACTTATGTGCCTGGCAAGCATATCTGAGAAGATGTTCCGCTGTGGCTGCCAAACCTGGTAACAGGTGCCCCAGTGCGTGTAGTCTTCTTCCGTCTCCGGACGGTAAGTGTGTGGTAAAGATGCGGCGTAAGGTTCAAGTGCCAACGCCCTGGAAGGGATGACCCTTCTACTGCCCTAGGAATGCCGCGCAGGTACCCCAGGTTCGCCTGGGATCTGAGCGCGGGCTAATTGTCTACGGGTAGTTTCATTTCCCTCTCTTTTCACTGGCATC
B6: Aichivirus DVI2169 (nucleic acid, listed as Aichivirus sp.)
DNA: TACTCCATTCAGCTTCTTCGGAACCTGTTCGGAGGAATTAAACGGGCACCCATACACCCCCACCCCCTTTTCTGCAACTTAAGTATGTGTGCTCGTAATCTTGACTCCCACGGAATGGATCGATCCGCTGGAGAACAAACTGCTAGATCCACATCCTCCCTTCCCCTGGGAGGACCCCGGTCCTCCCACATCCTCCCCCCAGCCTGACGTATCACAGGCTGTGTGAAGTCCCCGCGAAAGCTGCTCACGTGGCAATTGTGGGTCCCCCCTTCATCAAGACACCAGGTCTTTCCTCCTTAAGGCTAGCCCCGATGTGTGAATTCACATTGGGCAACTAGTGGTGTCACTGTGCGCTCCCAATCTCGGCCGCGGAGTGCTGTTCCCCAAGCCAAACCCCTGGCCCTTCACTATGTGCCTGGCAAGCATATCTGAGAAGGTGTTCCGCTGTGGCTGCCAGCCTGGTAACAGGTGCCCCAGTGTGCGTAACCTTCTTCCGTCTCCGGACGGTAGTGATTGGTTAAGATTTGGTGTAAGGTTCATGTGCCAACGCCCTGTGCGGGATGAAACCTCTACTGCCCTAGGAATGCCAGGCAGGTACCCCACCTTCGGGTGGGATCTGAGCCTGGGCTAATTGTCTACGGGTAGTTTCATTTCCAATTCTTTTATGTCGGAGTC

These molecules were tested on HEK293 cells. Conditions: luminescence from secreted Gluc in supernatant 24 hours after transfection of HEK293 cells; circular RNA encoding Gluc with the named IRES (UTR truncated to 675 nt).
Assay type: cell-based, human
In the case of B1, the Expression is reported as 6.63E+07. With B2 the Expression was 1.27E+05. Molecule B3 has an Expression of 3.51E+07. With B4 the Expression was 44200000. Molecule B5 has an Expression of 5.71E+07. B6 gave an Expression of 2.98E+06.
